Laboratory results from article doi:10.1101/411223 (bioRxiv, 2018).

Legend:
Kap121p = molecular target: T1, Kap121p (S. cerevisiae, UniProt P32337 1-1089); assay: ITC
T1 sequence (looked up): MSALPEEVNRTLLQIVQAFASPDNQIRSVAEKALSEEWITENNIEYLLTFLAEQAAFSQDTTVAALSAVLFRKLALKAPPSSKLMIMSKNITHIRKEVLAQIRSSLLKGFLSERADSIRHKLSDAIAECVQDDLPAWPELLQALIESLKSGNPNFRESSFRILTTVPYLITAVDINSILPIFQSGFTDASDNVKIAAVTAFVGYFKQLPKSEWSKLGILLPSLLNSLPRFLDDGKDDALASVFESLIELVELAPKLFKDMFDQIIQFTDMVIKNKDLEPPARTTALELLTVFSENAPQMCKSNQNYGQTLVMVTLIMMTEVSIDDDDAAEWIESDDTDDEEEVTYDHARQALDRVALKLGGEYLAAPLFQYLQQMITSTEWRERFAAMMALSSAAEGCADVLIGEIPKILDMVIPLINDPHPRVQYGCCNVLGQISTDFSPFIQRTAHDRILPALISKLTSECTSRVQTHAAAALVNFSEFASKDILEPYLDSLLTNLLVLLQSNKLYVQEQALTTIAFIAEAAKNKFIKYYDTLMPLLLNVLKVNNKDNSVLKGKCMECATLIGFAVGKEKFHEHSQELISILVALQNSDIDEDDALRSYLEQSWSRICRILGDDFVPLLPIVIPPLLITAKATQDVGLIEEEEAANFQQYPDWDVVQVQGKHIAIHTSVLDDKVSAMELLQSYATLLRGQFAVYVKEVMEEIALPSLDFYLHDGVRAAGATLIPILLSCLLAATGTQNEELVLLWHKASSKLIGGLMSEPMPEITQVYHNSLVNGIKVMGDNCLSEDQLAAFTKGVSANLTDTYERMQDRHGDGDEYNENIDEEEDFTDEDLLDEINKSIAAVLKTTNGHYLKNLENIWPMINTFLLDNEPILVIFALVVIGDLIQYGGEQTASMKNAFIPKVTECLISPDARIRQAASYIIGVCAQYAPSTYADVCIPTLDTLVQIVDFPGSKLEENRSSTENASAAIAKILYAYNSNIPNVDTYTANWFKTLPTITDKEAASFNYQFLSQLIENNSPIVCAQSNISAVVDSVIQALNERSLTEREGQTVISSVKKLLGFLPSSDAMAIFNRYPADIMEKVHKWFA

Kap114p = molecular target: T2, Kap114p (S. cerevisiae, UniProt P53067 1-1004); assay: AUC
T2 sequence (looked up): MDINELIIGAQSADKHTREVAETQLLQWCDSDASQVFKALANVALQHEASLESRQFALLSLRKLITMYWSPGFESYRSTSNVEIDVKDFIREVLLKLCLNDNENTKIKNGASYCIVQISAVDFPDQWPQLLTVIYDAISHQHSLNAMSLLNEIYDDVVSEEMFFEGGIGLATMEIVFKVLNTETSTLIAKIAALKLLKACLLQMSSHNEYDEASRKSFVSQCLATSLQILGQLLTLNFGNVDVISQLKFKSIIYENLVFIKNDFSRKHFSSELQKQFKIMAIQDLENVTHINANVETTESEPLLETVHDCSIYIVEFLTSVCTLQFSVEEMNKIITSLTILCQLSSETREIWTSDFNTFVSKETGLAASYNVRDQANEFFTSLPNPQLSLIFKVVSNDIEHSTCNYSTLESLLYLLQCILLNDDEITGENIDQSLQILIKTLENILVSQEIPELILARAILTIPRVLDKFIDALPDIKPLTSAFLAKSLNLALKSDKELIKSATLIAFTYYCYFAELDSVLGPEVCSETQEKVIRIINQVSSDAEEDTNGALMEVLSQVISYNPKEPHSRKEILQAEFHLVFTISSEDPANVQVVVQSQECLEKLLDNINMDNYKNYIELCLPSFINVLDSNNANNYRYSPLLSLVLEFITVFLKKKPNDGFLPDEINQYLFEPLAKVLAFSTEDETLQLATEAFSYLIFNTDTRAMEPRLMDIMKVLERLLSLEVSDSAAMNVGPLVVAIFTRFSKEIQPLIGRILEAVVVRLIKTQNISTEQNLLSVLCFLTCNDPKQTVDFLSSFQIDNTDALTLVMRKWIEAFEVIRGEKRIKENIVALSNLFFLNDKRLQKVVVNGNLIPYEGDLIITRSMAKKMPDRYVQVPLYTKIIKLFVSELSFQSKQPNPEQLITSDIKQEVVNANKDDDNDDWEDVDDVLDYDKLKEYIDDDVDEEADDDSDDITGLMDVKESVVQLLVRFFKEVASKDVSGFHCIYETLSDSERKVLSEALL

B1: yTBP (61-240) (domain or fragment, S. cerevisiae, UniProt P13393 61-240, looked up)
chain: SGIVPTLQNIVATVTLGCRLDLKTVALHARNAEYNPKRFAAVIMRIREPKTTALIFASGKMVVTGAKSEDDSKLASRKYARIIQKIGFAAKFTDFKIQNIVGSCDVKFPIRLEGLAFSHGTFSSYEPELFPGLIYRMVKPKIVLLIFVSGKIVLTGAKQREEIYQAFEAIYPVLSEFRKM
Kd (Kap121p): ~15 µM
stoichiometry N (Kap114p): 1
